Reference: patent US20050287542A1 (YALE UNIVERSITY, published 2005)
Square brackets hold non-standard residues; d marks the D form. Primed or numbered codes have the meaning given here. Ends that are not written are not given here. * marks the point of attachment. acetamidofluorescein = acetamidofluorescein label attached to the side chain of a C-terminal cysteine residue (made by modifying the cysteine with 5-iodoacetamidofluorescein); acetamidofluorescein″ = acetamidofluorescein (5-iodoacetamidofluorescein attached to the C-terminal Cys); Fluorescein(5-NHCOCH2) = O=C(C*)Nc1ccc2c(c1)C(=O)OC21c2ccc(O)cc2Oc2cc(O)ccc21; pS = N[C@@H](COP(=O)(O)O)C(=O)O

Assays:
[1] = biological target: T1, HisKIX (His-tagged CBP KIX domain) (UniProt P45481 586-672); assay: fluorescence polarization; end tied to the member by the Kd of Table 1
T1 construct: range 586-672; not shown: amino-terminal hexahistidine tag of pET15b
T1 sequence (P45481 586-672): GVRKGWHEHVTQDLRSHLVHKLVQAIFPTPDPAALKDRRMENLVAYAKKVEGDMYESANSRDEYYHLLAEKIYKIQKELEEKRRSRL

[2] = biological target: T1, HisKIX (His-tagged CBP KIX domain); assay: fluorescence polarization competition; displaces 25 nM fluorescein-labelled PPKID4^P from 1.5 µM HisKIX
[3] = biological target: T1, HisKIX (His-tagged CBP KIX domain); assay: fluorescence polarization competition; displaces 25 nM fluorescein-labelled PPKID6^U from 3.0 µM HisKIX
[4] = biological target: T1, HisKIX (His-tagged CBP KIX domain); assay: fluorescence polarization competition: 25 nM fluorescein-labelled PPKID4^P on 1.5 uM HisKIX, unlabelled KID-AB^P titrated
Method: Each point represents an average of three independent samples; the error bars denote standard error.
6) Fluorescence polarization—Fluorescence polarization experiments were performed with a Photon Technology International QuantaMaster C-60 spectrofluorimeter at 25° C. in a 1 cm pathlength Hellma cuvette. […] Briefly, an aliquot of fluorescently labeled peptide was added to a final concentration of 25-50 nM and the binding reaction was incubated for 30 min at 25° C. Thirty minutes was a sufficient length of time for the binding reaction to reach equilibrium, as judged by an absence of change in the observed polarization value of the sample with the highest HisKIX concentration over 1 h.

calmodulin (Sigma) [5] = assay: fluorescence polarization
[6] = biological target: T1, HisKIX (His-tagged CBP KIX domain); assay: fluorescence polarization
calmodulin (Sigma) [7] = assay: fluorescence polarization; remark: listed apart in the source
Method: (§1) Binding reactions containing serially diluted target protein and 25-50 nM of fluorescein-labeled peptides (peptide^Flu) were incubated for 30 min at 25° C. Each point represents the average polarization of two to three independent samples; error bars denote standard error. […] Circular and triangular symbols indicate that HisKIX was used as the target protein; the symbols are colored as in FIG. 9 with the exception of the points for peptide C^U, which are in orange for clarity. Square symbols indicate that carbonic anhydrase was used as the target protein. […] Circular and triangular symbols indicate that HisKIX was used as the target protein, and the symbols are colored as in FIG. 9. Square symbols indicate that calmodulin was used as the target protein.

[8] = biological target: carbonic anhydrase II (Sigma); assay: fluorescence polarization
Chain of carbonic anhydrase II (Sigma) (P00921 2-260): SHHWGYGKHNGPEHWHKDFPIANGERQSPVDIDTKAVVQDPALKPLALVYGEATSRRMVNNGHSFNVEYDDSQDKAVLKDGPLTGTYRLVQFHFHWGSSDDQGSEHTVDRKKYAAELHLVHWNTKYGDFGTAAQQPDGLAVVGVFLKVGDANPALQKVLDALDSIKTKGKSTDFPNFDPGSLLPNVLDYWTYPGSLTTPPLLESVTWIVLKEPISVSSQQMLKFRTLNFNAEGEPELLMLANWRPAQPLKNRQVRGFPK
Method: as §1

[9] = biological target: T1, HisKIX (His-tagged CBP KIX domain); assay: fluorescence polarization; remark: listed apart in the source
Method: as §1

calmodulin (Sigma) [10] = assay: fluorescence polarization, calmodulin
Method: as §1

[11] = biological target: T1, HisKIX (His-tagged CBP KIX domain); assay: fluorescence polarization, HisKIX, 25 C
[12] = biological target: carbonic anhydrase II (Sigma); assay: fluorescence emission change of labelled peptide, PBS
calmodulin (Sigma) [13] = assay: fluorescence emission change of labelled peptide, HEPES/KCl/CaCl2 buffer
[14] = biological target: T2, GST-KIXY650A (Y650A variant of CBP KIX) (UniProt P45481 586-665, limits assumed); assay: fluorescence polarization
T2 construct: domain: KIX; not shown: GST tag
T2 sequence (P45481 586-665 Y650A limits assumed): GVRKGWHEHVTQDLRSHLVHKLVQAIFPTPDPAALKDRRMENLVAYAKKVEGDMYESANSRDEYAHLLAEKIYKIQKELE

CBP KIX variant Y658A = biological target: T3, CBP KIX variant Y658A (UniProt P45481 586-665, limits assumed); assay: fluorescence polarization
T3 construct: domain: KIX
T3 sequence (P45481 586-665 Y658A limits assumed): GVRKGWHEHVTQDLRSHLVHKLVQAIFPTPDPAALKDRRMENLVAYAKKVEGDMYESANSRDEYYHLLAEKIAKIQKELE

CBP KIX variant Y658F = biological target: T4, CBP KIX variant Y658F (UniProt P45481 586-665, limits assumed); assay: fluorescence polarization
T4 construct: domain: KIX
T4 sequence (P45481 586-665 Y658F limits assumed): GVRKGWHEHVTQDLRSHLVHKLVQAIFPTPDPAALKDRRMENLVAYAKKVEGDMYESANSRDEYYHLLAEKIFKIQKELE

CBP KIX variant K662A = biological target: T5, CBP KIX variant K662A (UniProt P45481 586-665, limits assumed); assay: fluorescence polarization
T5 construct: domain: KIX
T5 sequence (P45481 586-665 K662A limits assumed): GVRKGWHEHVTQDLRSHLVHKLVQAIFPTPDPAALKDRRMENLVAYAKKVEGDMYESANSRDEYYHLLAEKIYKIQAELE

[15] = biological target: T6, CBP KIX variant Y650A (Example 20) (UniProt P45481 586-665, limits assumed); assay: fluorescence polarization
T6 construct: domain: KIX
T6 sequence (P45481 586-665 Y650A limits assumed): as the sequence (P45481 586-665 Y650A limits assumed) above

CBP KIX variant L603A = biological target: T7, CBP KIX variant L603A (UniProt P45481 586-665, limits assumed); assay: fluorescence polarization
T7 construct: domain: KIX
T7 sequence (P45481 586-665 L603A limits assumed): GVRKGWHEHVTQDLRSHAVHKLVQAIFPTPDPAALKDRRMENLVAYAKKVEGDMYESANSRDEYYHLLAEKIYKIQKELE

[16] = biological target: T8, CBP KIX variant LL652-3AA (UniProt P45481 586-665, limits assumed); assay: fluorescence polarization
T8 construct: domain: KIX
T8 sequence (P45481 other isoform, or with tags, fused parts or gaps mutant limits assumed): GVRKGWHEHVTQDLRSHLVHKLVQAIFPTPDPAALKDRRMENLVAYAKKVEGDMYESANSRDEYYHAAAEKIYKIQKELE

CBP KIX variant K606A = biological target: T9, CBP KIX variant K606A (UniProt P45481 586-665, limits assumed); assay: fluorescence polarization
T9 construct: domain: KIX
T9 sequence (P45481 586-665 K606A limits assumed): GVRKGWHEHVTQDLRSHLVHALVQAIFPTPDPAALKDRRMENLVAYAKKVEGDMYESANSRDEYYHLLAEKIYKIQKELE

CBP KIX variant I657A = biological target: T10, CBP KIX variant I657A (UniProt P45481 586-665, limits assumed); assay: fluorescence polarization
T10 construct: domain: KIX
T10 sequence (P45481 586-665 I657A limits assumed): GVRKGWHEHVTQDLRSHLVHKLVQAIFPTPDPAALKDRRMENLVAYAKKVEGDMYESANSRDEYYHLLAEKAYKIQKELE

CBP KIX variant L599A = biological target: T11, CBP KIX variant L599A (UniProt P45481 586-665, limits assumed); assay: fluorescence polarization
T11 construct: domain: KIX
T11 sequence (P45481 586-665 L599A limits assumed): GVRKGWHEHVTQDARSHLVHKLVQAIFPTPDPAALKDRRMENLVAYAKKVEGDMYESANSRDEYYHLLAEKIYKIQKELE

CBP KIX variant Q661A = biological target: T12, CBP KIX variant Q661A (UniProt P45481 586-665, limits assumed); assay: fluorescence polarization
T12 construct: domain: KIX
T12 sequence (P45481 586-665 Q661A limits assumed): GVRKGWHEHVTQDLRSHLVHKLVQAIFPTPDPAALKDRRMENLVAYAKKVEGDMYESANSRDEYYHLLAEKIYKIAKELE

CBP KIX variant E655A = biological target: T13, CBP KIX variant E655A (UniProt P45481 586-665, limits assumed); assay: fluorescence polarization
T13 construct: domain: KIX
T13 sequence (P45481 586-665 E655A limits assumed): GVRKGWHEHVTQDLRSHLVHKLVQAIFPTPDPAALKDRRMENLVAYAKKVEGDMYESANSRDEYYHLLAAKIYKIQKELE

CBP KIX variant I660A = biological target: T14, CBP KIX variant I660A (UniProt P45481 586-665, limits assumed); assay: fluorescence polarization
T14 construct: domain: KIX
T14 sequence (P45481 586-665 I660A limits assumed): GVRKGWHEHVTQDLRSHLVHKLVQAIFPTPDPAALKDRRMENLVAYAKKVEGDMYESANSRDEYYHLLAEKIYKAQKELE

[17] = biological target: carbonic anhydrase II (Sigma); assay: fluorescence polarization, carbonic anhydrase II
calmodulin (Sigma) [18] = assay: fluorescence polarization, calmodulin (text differs from Table 2)
Method: 6) Fluorescence polarization—Fluorescence polarization experiments were performed with a Photon Technology International QuantaMaster C-60 spectrofluorimeter at 25° C. in a 1 cm pathlength Hellma cuvette. […] Briefly, an aliquot of fluorescently labeled peptide was added to a final concentration of 25-50 nM and the binding reaction was incubated for 30 min at 25° C. Thirty minutes was a sufficient length of time for the binding reaction to reach equilibrium, as judged by an absence of change in the observed polarization value of the sample with the highest HisKIX concentration over 1 h. […] For specificity measurements, carbonic anhydrase II (Sigma) or calmodulin (Sigma) was used as the target protein in place of HisKIX, and fluorescently labeled peptide was used at a final concentration of 50 nM.

[19] = biological target: T15, wild type CBP KIX (Example 20) (UniProt P45481 586-665, limits assumed); assay: fluorescence polarization
T15 construct: domain: KIX
T15 sequence (P45481 586-665 limits assumed): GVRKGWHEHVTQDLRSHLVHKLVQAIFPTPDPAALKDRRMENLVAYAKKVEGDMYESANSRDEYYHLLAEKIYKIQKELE

B1: PPKID1^U (designed binder)
peptide: GASDMTYWGDDAPVRRLSFFYILLDLYLDAPGVC(acetamidofluorescein″)-NH2
notes: also called PPKID1 (unphosphorylated)
- ΔΔG against peptide C^U [1]: 0.1 kcal/mol

B2: unlabeled KID-AB^P (peptide)
peptide: TDSQKRREILSRRP[pS]YRKILNDLSSDAPGVC-NH2
notes: also called CREB KID^P
- IC50 [2]: 3.2 µM
- IC50 [3]: 2.4 µM
- IC50 (read off the curve) [4]: ~3 µM

B3: peptide C^P (chimeric α-helical portion of the PPKID peptides, residues 15-33, phosphorylated) (peptide)
peptide: RRL[pS]FFYILLDLYLDAPGVC(acetamidofluorescein)-NH2
- fold lower affinity than PPKID4^P (calmodulin (Sigma) [5]): 4 fold
- ΔΔG against KID-B^P [6]: -1.8 kcal/mol
- Krel = Kd (CalM)/Kd (HisKIX) (calmodulin (Sigma) [7]): 74
- Krel = Kd (CA)/Kd (HisKIX) [8]: 40
- Kd [9]: 2.4 µM
- Kd (calmodulin (Sigma) [10]): 178 µM
- Kd [11]: 2.4 µM

B4: PPKID3^U (designed binder)
peptide: GASPHTSSGDDAPVRRLSFFDILLDLYLDAPGVC(acetamidofluorescein″)-NH2
notes: also called PPKID3 (unphosphorylated)
- ΔΔG against peptide C^U [1]: -0.7 kcal/mol

B5: peptide C^U (peptide)
peptide: RRLSFFYILLDLYLDAPGVC(acetamidofluorescein)-NH2
- ΔΔG against KID-B^U [6]: ≥ -1.5 kcal/mol
- Krel = Kd (CA)/Kd (HisKIX) [8]: 3

B6: Bak peptide, fluorescein-labelled (Bak-flu) (peptide)
peptide: GQVGRQLAIIGDDINRYC(5‑iodoacetamidofluorescein)-NH2
notes: also called Bak BH3 peptide; Bak 72-94
- Kd [12]: 22 µM
- Kd (calmodulin (Sigma) [13]): 25 µM

B7: p4099, fluorescein-labelled (designed binder)
peptide: GPSQPTYPGDDAPVEDLIRFVGRLLAYFGDTINRYC(5‑iodoacetamidofluorescein)-NH2
notes: p4121-flu tied to p4099 by order and mass difference only; also called p4099 (GAGT); p4121-flu
- Kd [12]: 8.6 µM
- Kd (calmodulin (Sigma) [13]): 25 µM

B8: PPKID6 S18E (designed binder)
peptide: GISWPTFEGDDAPVRRLEFFYILLDLYLDAPGVC(acetamidofluorescein″)-NH2
- ΔΔG against PPKID6^U [6]: 1.2 kcal/mol

B9: PPKID6^U (designed binder)
peptide: GISWPTFEGDDAPVRRLSFFYILLDLYLDAPGVC(acetamidofluorescein)-NH2
notes: also called PPKID6 (unphosphorylated)
- Kd [14]: 0.712 µM
- Krel = Kd (CalM)/Kd (HisKIX) (calmodulin (Sigma) [7]): > 112
- Krel = Kd (CA)/Kd (HisKIX) [8]: 53
- ΔΔG against wild type CBP KIX (CBP KIX variant Y658A): 0.68 kcal/mol
- ΔΔG against wild type CBP KIX (CBP KIX variant Y658F): 0.97 kcal/mol
- ΔΔG against wild type CBP KIX (CBP KIX variant K662A): 0.71 kcal/mol
- ΔΔG against wild type CBP KIX [15]: 0.52 kcal/mol
- ΔΔG against wild type CBP KIX (CBP KIX variant L603A): 0.91 kcal/mol
- ΔΔG against wild type CBP KIX [16]: -0.8 kcal/mol
- ΔΔG against wild type CBP KIX (CBP KIX variant K606A): 0.47 kcal/mol
- ΔΔG against wild type CBP KIX (CBP KIX variant I657A): 1.1 kcal/mol
- ΔΔG against wild type CBP KIX (CBP KIX variant L599A): 1.1 kcal/mol
- ΔΔG against wild type CBP KIX (CBP KIX variant Q661A): -0.16 kcal/mol
- ΔΔG against wild type CBP KIX (CBP KIX variant E655A): 0.68 kcal/mol
- ΔΔG against wild type CBP KIX (CBP KIX variant I660A): 1.4 kcal/mol
- Kd (calmodulin (Sigma) [10]): > 168 µM
- Kd [17]: 79 µM

B10: PPKID6^P (designed binder)
peptide: GISWPTFEGDDAPVRRL[pS]FFYILLDLYLDAPGVC(acetamidofluorescein″)-NH2
notes: also called PPKID6 (phosphorylated)
- ΔΔG upon phosphorylation [6]: -0.5 kcal/mol

B11: PPKID4^P (designed binder)
peptide: GPSQPTYPGDDAPVRRL[pS]FFYILLDLYLDAPGVC(acetamidofluorescein)-NH2
notes: also called PPKID4 (phosphorylated); wild type PPKID4^P
- ΔΔG against wild type CBP KIX (CBP KIX variant Y658A): 1.1 kcal/mol
- ΔΔG against wild type CBP KIX (CBP KIX variant Y658F): 1.1 kcal/mol
- ΔΔG against wild type CBP KIX (CBP KIX variant K662A): 1.1 kcal/mol
- ΔΔG against wild type CBP KIX [15]: 0.95 kcal/mol
- ΔΔG against wild type CBP KIX (CBP KIX variant L603A): 1 kcal/mol
- ΔΔG against wild type CBP KIX [16]: 0.93 kcal/mol
- ΔΔG against wild type CBP KIX (CBP KIX variant K606A): 0.97 kcal/mol
- ΔΔG against wild type CBP KIX (CBP KIX variant I657A): 0.89 kcal/mol
- ΔΔG against wild type CBP KIX (CBP KIX variant L599A): 0.58 kcal/mol
- ΔΔG against wild type CBP KIX (CBP KIX variant Q661A): 0.35 kcal/mol
- ΔΔG against wild type CBP KIX (CBP KIX variant E655A): -0.07 kcal/mol
- ΔΔG against wild type CBP KIX (CBP KIX variant I660A): 0.35 kcal/mol
- Kd (calmodulin (Sigma) [10]): 52 µM
- Kd [17]: 106 µM
- Kd (calmodulin (Sigma) [18]): 51 µM

B12: PPKID4^P variant Y27A (designed binder)
peptide: H-GPSQPTYPGDDAPVRRL[pS]FFYILLDLALDAPGVC(Fluorescein(5-NHCOCH2))-NH2
- ΔΔG against wild type PPKID4^P [19]: 0.96 kcal/mol

B13: PPKID4^P variant P2A (designed binder)
peptide: H-GASQPTYPGDDAPVRRL[pS]FFYILLDLYLDAPGVC(Fluorescein(5-NHCOCH2))-NH2
- ΔΔG against wild type PPKID4^P [19]: 0.21 kcal/mol

B14: PPKID4^P variant L17A (designed binder)
peptide: H-GPSQPTYPGDDAPVRRA[pS]FFYILLDLYLDAPGVC(Fluorescein(5-NHCOCH2))-NH2
- ΔΔG against wild type PPKID4^P [19]: 0.07 kcal/mol

B15: PPKID4^P variant L24A (designed binder)
peptide: H-GPSQPTYPGDDAPVRRL[pS]FFYILADLYLDAPGVC(Fluorescein(5-NHCOCH2))-NH2
- ΔΔG against wild type PPKID4^P [19]: 0.38 kcal/mol

B16: PPKID4^P variant L28A (designed binder)
peptide: H-GPSQPTYPGDDAPVRRL[pS]FFYILLDLYADAPGVC(Fluorescein(5-NHCOCH2))-NH2
- ΔΔG against wild type PPKID4^P [19]: 0.18 kcal/mol

B17: PPKID4^P variant F20A (designed binder)
peptide: H-GPSQPTYPGDDAPVRRL[pS]FAYILLDLYLDAPGVC(Fluorescein(5-NHCOCH2))-NH2
- ΔΔG against wild type PPKID4^P [19]: 0.85 kcal/mol

B18: PPKID4^P variant P8A (designed binder)
peptide: H-GPSQPTYAGDDAPVRRL[pS]FFYILLDLYLDAPGVC(Fluorescein(5-NHCOCH2))-NH2
- ΔΔG against wild type PPKID4^P [19]: 0.33 kcal/mol

B19: PPKID4^P variant P5A (designed binder)
peptide: H-GPSQATYPGDDAPVRRL[pS]FFYILLDLYLDAPGVC(Fluorescein(5-NHCOCH2))-NH2
- ΔΔG against wild type PPKID4^P [19]: 0.3 kcal/mol
